# Results from patent US20230044278A1 (DYNE THERAPEUTICS, published 2023).
# T1: recombinant cynomolgus monkey (Macaca fascicularis) transferrin receptor 1 (cynomolgus monkey (Macaca fascicularis), UniProt Q5RDH6 87-760 (Pongo abelii entry), limits assumed)
# T1 construct: also called cTfR1; cyno TfR1
# T1 chain: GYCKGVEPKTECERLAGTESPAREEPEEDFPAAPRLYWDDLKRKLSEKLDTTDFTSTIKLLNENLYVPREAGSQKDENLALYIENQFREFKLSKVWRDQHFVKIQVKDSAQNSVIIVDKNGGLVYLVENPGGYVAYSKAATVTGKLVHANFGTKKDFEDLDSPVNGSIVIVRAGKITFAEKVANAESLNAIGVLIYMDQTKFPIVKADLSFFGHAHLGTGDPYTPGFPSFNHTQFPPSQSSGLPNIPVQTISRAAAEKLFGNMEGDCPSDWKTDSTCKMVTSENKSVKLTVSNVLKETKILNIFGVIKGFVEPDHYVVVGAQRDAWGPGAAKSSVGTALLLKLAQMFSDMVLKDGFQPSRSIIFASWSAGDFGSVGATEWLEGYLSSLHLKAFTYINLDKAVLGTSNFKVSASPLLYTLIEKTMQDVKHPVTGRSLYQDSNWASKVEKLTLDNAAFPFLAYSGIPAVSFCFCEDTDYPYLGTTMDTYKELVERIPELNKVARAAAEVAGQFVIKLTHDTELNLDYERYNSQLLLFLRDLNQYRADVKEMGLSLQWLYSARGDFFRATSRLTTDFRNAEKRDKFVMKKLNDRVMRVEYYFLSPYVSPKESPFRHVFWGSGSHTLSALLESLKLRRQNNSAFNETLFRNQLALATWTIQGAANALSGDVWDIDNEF
# Assays:
# [1] = molecular target: T2, recombinant human transferrin receptor 1 (human, UniProt P02786 89-760); experiment: ELISA, thermal stability d9 (after 9 days at high temperature); printed as 'Binding affinity hTfR1 d9 (nM)'
# T2 construct: also called hTfR1; huTfR1
# T2 sequence (P02786 89-760 limits assumed): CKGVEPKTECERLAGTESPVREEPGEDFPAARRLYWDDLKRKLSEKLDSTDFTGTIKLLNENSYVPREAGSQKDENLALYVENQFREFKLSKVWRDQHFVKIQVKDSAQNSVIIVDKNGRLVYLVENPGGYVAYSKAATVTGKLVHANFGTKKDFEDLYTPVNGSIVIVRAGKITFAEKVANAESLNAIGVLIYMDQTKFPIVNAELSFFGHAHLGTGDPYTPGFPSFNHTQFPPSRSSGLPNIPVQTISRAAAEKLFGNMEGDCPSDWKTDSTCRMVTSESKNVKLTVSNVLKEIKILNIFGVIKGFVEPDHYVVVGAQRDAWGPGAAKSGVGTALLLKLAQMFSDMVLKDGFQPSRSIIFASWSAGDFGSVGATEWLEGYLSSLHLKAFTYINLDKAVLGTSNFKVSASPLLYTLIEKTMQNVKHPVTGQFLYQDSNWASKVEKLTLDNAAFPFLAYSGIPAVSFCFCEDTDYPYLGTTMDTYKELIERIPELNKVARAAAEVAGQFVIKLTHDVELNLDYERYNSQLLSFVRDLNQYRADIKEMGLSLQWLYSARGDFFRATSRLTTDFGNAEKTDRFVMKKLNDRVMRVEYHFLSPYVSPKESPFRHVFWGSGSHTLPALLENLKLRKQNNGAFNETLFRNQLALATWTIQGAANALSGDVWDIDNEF
# Description: (§1) To measure binding of humanized anti-TfR antibodies to TfR1, ELISAs were conducted. High binding, black, flat bottom, 96 well plates (Corning #3925) were first coated with 100 μL/well of recombinant huTfR1 at […] in PBS and incubated at 4° C. overnight. Wells were emptied and residual liquid was removed. Blocking was conducted by adding 200 μL of 1% BSA (w/w) in PBS to each well. Blocking was allowed to proceed for 2 hours at room temperature on a shaker at 300 rpm. After blocking, liquid was removed and wells were washed three times with 300 μL of TBST. Anti-TfR1 antibodies were then added in 0.5% BSA/TBST in triplicate in an 8 point serial dilution (dilution range 5 μg/mL-5 ng/mL). A positive control and isotype controls were also included on the ELISA plate. The plate was incubated at room temperature on an orbital shaker for 60 minutes at 300 rpm, and the plate was washed three times with 300 μL of TBST. Anti-(H+L)IgG-A488 (1:500) (Invitrogen #A11013) was diluted in 0.5% BSA in TBST, and 100 μL was added to each well. The plate was then allowed to incubate at room temperature for 60 minutes at 300 rpm on orbital shaker. The liquid was removed and the plate was washed four times with 300 μL of TBST. Absorbance was then measured at 495 nm excitation and […] (with a 15 nm bandwidth) on a plate reader. Data was recorded and analyzed for EC₅₀. […] ELISA measurements were conducted using cynomolgus monkey (Macaca fascicularis) TfR1 (cTfR1) according to the same protocol described above for hTfR1, and results are shown in FIGS. 1B, 1D, and 1F.
# [2] = molecular target: T1, recombinant cynomolgus monkey (Macaca …); experiment: ELISA, thermal stability d9 (after 9 days at high temperature); printed as 'Binding affinity cyno TfR1 d9 (nM)'
# Description: The selected Fabs were analyzed for their properties binding to TfR1 by kinetic analysis. For conjugates shown in Table 8 and Table 9, the selected humanized Fabs were conjugated to a DMPK-targeting oligonucleotide ASO300.
# as §1
# [3] = molecular target: T1, recombinant cynomolgus monkey (Macaca …); experiment: ELISA, Fab-ASO300 conjugate; printed as 'DMPK oligo conjugate binding to cyno TfR1 (nM)'
# [4] = molecular target: T2, recombinant human transferrin receptor 1; experiment: ELISA, Fab-ASO300 conjugate; printed as 'DMPK oligo conjugate binding to hTfR1 (nM)'
Binder,EC50 [1] [nM],EC50 [2] [nM],EC50 [3] [nM],EC50 [4] [nM]
"humanized anti-TfR Fab 3A4 (VH3-N54T/Vk4) (Fab, V domains shown, unconjugated; also called 3A4 VH3 (N54T*)/Vκ4) VH: EVQLVQSGSELKKPGASVKVSCTASGFNIKDDYMYWVRQPPGKGLEWIGWIDPETGDTEYASKFQDRVTVTADTSTNTAYMELSSLRSEDTAVYYCTLWLRRGLDYWGQGTLVTVSS VL: DIVMTQSPLSLPVTPGEPASISCRSSKSLLHSNGYTYLFWFQQRPGQSPRLLIYRMSNLASGVPDRFSGSGSGTDFTLKISRVEAEDVGVYYCMQHLEYPFTFGGGTKVEIKR",0.4,128,,
"3A4 (VH3-N54S/Vk4) Fab conjugated to DMPK-targeting oligonucleotide ASO300 (Fab, V domains shown, ASO300 oligonucleotide covalently conjugated via linker of Formula (C); residue and chain not stated, also called 3A4 (VH3-N54S/Vk4) conjugate; DMPK oligo conjugate) VH: EVQLVQSGSELKKPGASVKVSCTASGFNIKDDYMYWVRQPPGKGLEWIGWIDPESGDTEYASKFQDRVTVTADTSTNTAYMELSSLRSEDTAVYYCTLWLRRGLDYWGQGTLVTVSS VL: DIVMTQSPLSLPVTPGEPASISCRSSKSLLHSNGYTYLFWFQQRPGQSPRLLIYRMSNLASGVPDRFSGSGSGTDFTLKISRVEAEDVGVYYCMQHLEYPFTFGGGTKVEIKR",,,4.1,2.71
"humanized anti-TfR Fab 3A4 (VH3-N54S/Vk4) (Fab, V domains shown, unconjugated; also called 3A4 VH3 (N54S*)/Vκ4) VH: EVQLVQSGSELKKPGASVKVSCTASGFNIKDDYMYWVRQPPGKGLEWIGWIDPESGDTEYASKFQDRVTVTADTSTNTAYMELSSLRSEDTAVYYCTLWLRRGLDYWGQGTLVTVSS VL: DIVMTQSPLSLPVTPGEPASISCRSSKSLLHSNGYTYLFWFQQRPGQSPRLLIYRMSNLASGVPDRFSGSGSGTDFTLKISRVEAEDVGVYYCMQHLEYPFTFGGGTKVEIKR",0.65,248,,
"humanized anti-TfR Fab 3A4 (VH3/Vk4) (Fab, V domains shown, unconjugated; also called 3A4 VH3 /Vκ4) VH: EVQLVQSGSELKKPGASVKVSCTASGFNIKDDYMYWVRQPPGKGLEWIGWIDPENGDTEYASKFQDRVTVTADTSTNTAYMELSSLRSEDTAVYYCTLWLRRGLDYWGQGTLVTVSS VL: DIVMTQSPLSLPVTPGEPASISCRSSKSLLHSNGYTYLFWFQQRPGQSPRLLIYRMSNLASGVPDRFSGSGSGTDFTLKISRVEAEDVGVYYCMQHLEYPFTFGGGTKVEIKR",0.46,878,,
"humanized anti-TfR Fab 5H12 (VH5-C33Y/Vk4) (Fab, V domains shown, unconjugated; also called 5H12 VH5 (C33Y*)/Vκ4) VH: QVQLVQSGAEVKKPGASVKVSCKASGYSFTDYYINWVRQAPGQGLEWMGWIYPGSGNTRYSERFKGRVTITRDTSASTAYMELSSLRSEDTAVYYCAREDYYPYHGMDYWGQGTLVTVSS VL: DIVMTQSPDSLAVSLGERATINCRASESVDGYDNSFMHWYQQKPGQPPKLLIFRASNLESGVPDRFSGSGSGTDFTLTISSLQAEDVAVYYCQQSSEDPWTFGQGTKLEIKR",1730,0.26,,
"humanized anti-TfR Fab 5H12 (VH5-C33D/Vk4) (Fab, V domains shown, unconjugated; also called 5H12 VH5 (C33D*)/Vκ4) VH: QVQLVQSGAEVKKPGASVKVSCKASGYSFTDYDINWVRQAPGQGLEWMGWIYPGSGNTRYSERFKGRVTITRDTSASTAYMELSSLRSEDTAVYYCAREDYYPYHGMDYWGQGTLVTVSS VL: DIVMTQSPDSLAVSLGERATINCRASESVDGYDNSFMHWYQQKPGQPPKLLIFRASNLESGVPDRFSGSGSGTDFTLTISSLQAEDVAVYYCQQSSEDPWTFGQGTKLEIKR",92.3,0.63,,
"humanized anti-TfR Fab 5H12 (VH5-C33Y/Vk3) (Fab, V domains shown, unconjugated; also called 5H12 VH5 (C33Y*)/Vκ3) VH: QVQLVQSGAEVKKPGASVKVSCKASGYSFTDYYINWVRQAPGQGLEWMGWIYPGSGNTRYSERFKGRVTITRDTSASTAYMELSSLRSEDTAVYYCAREDYYPYHGMDYWGQGTLVTVSS VL: DIVLTQSPDSLAVSLGERATINCRASESVDGYDNSFMHWYQQKPGQPPKLLIFRASNLESGVPDRFSGSGSRTDFTLTISSLQAEDVAVYYCQQSSEDPWTFGQGTKLEIKR",71.9,0.69,,
"humanized anti-TfR Fab 3M12 (VH3/Vk2) (Fab, V domains shown, unconjugated; also called 3M12 VH3/Vκ2) VH: QVQLQESGPGLVKPSQTLSLTCSVTGYSITSGYYWNWIRQPPGKGLEWMGYITFDGANNYNPSLKNRVSISRDTSKNQFSLKLSSVTAEDTATYYCTRSSYDYDVLDYWGQGTTVTVSS VL: DIQMTQSPSSLSASVGDRVTITCRASQDISNFLNWYQQKPGQPVKLLIYYTSRLHSGVPSRFSGSGSGTDFTLTISSLQPEDFATYFCQQGHTLPYTFGQGTKLEIKR",0.98,19.5,,
"3M12 (VH4/Vk3) Fab conjugated to DMPK-targeting oligonucleotide ASO300 (Fab, V domains shown, ASO300 oligonucleotide covalently conjugated via linker of Formula (C); residue and chain not stated, also called 3M12 (VH4/Vk3) conjugate; DMPK oligo conjugate) VH: QVQLQESGPGLVKPSQTLSLTCTVTGYSITSGYYWNWIRQPPGKGLEWIGYITFDGANNYNPSLKNRVSISRDTSKNQFSLKLSSVTAEDTATYYCTRSSYDYDVLDYWGQGTTVTVSS VL: DIQMTQSPSSLSASVGDRVTITCRASQDISNFLNWYQQKPGQPVKLLIYYTSRLHSGVPSRFSGSGSGTDFTLTISSLQPEDFATYYCQQGHTLPYTFGQGTKLEIKR",,,1.85,1.18
"humanized anti-TfR Fab 3M12 (VH3/Vk3) (Fab, V domains shown, unconjugated; also called 3M12 VH3/Vκ3) VH: QVQLQESGPGLVKPSQTLSLTCSVTGYSITSGYYWNWIRQPPGKGLEWMGYITFDGANNYNPSLKNRVSISRDTSKNQFSLKLSSVTAEDTATYYCTRSSYDYDVLDYWGQGTTVTVSS VL: DIQMTQSPSSLSASVGDRVTITCRASQDISNFLNWYQQKPGQPVKLLIYYTSRLHSGVPSRFSGSGSGTDFTLTISSLQPEDFATYYCQQGHTLPYTFGQGTKLEIKR",1.49,15.6,,
"humanized anti-TfR Fab 3M12 (VH4/Vk2) (Fab, V domains shown, unconjugated; also called 3M12 VH4/Vκ2) VH: QVQLQESGPGLVKPSQTLSLTCTVTGYSITSGYYWNWIRQPPGKGLEWIGYITFDGANNYNPSLKNRVSISRDTSKNQFSLKLSSVTAEDTATYYCTRSSYDYDVLDYWGQGTTVTVSS VL: DIQMTQSPSSLSASVGDRVTITCRASQDISNFLNWYQQKPGQPVKLLIYYTSRLHSGVPSRFSGSGSGTDFTLTISSLQPEDFATYFCQQGHTLPYTFGQGTKLEIKR",0.5,5.01,,
"humanized anti-TfR Fab 3M12 (VH4/Vk3) (Fab, V domains shown, unconjugated; also called 3M12 VH4/Vκ3) VH: QVQLQESGPGLVKPSQTLSLTCTVTGYSITSGYYWNWIRQPPGKGLEWIGYITFDGANNYNPSLKNRVSISRDTSKNQFSLKLSSVTAEDTATYYCTRSSYDYDVLDYWGQGTTVTVSS VL: DIQMTQSPSSLSASVGDRVTITCRASQDISNFLNWYQQKPGQPVKLLIYYTSRLHSGVPSRFSGSGSGTDFTLTISSLQPEDFATYYCQQGHTLPYTFGQGTKLEIKR",0.28,16.4,,
"3M12 (VH3/Vk2) Fab conjugated to DMPK-targeting oligonucleotide ASO300 (Fab, V domains shown, ASO300 oligonucleotide covalently conjugated via linker of Formula (C); residue and chain not stated, also called 3M12 (VH3/Vk2) conjugate; DMPK oligo conjugate) VH: QVQLQESGPGLVKPSQTLSLTCSVTGYSITSGYYWNWIRQPPGKGLEWMGYITFDGANNYNPSLKNRVSISRDTSKNQFSLKLSSVTAEDTATYYCTRSSYDYDVLDYWGQGTTVTVSS VL: DIQMTQSPSSLSASVGDRVTITCRASQDISNFLNWYQQKPGQPVKLLIYYTSRLHSGVPSRFSGSGSGTDFTLTISSLQPEDFATYFCQQGHTLPYTFGQGTKLEIKR",,,2.26,1.14
"3A4 (VH3-N54T/Vk4) Fab conjugated to DMPK-targeting oligonucleotide ASO300 (Fab, V domains shown, ASO300 oligonucleotide covalently conjugated via linker of Formula (C); residue and chain not stated, also called 3A4 (VH3-N54T/Vk4) conjugate; DMPK oligo conjugate) VH: EVQLVQSGSELKKPGASVKVSCTASGFNIKDDYMYWVRQPPGKGLEWIGWIDPETGDTEYASKFQDRVTVTADTSTNTAYMELSSLRSEDTAVYYCTLWLRRGLDYWGQGTLVTVSS VL: DIVMTQSPLSLPVTPGEPASISCRSSKSLLHSNGYTYLFWFQQRPGQSPRLLIYRMSNLASGVPDRFSGSGSGTDFTLKISRVEAEDVGVYYCMQHLEYPFTFGGGTKVEIKR",,,5.12,2.22
